System: Escherichia coli TOP10
Test: shrunken log2 fold change of peptide-encoding DNA abundance (4.5 h post-induction vs induction); higher = less antimicrobial activity (less host growth inhibition)
Settings: time post-induction: 4.5 h; library: site-saturation at positions 5, 18, 19, 20
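Further: peptides expressed intracellularly from a pBAD plasmid library in pooled LB shake-flask culture, induced with 0.3% L-arabinose, DNA abundance read by NGS, three biological replicates, DESeq2 with apeglm shrinkage.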

RRIRWRPPRLPRPRPRPCGGPRP
shrunken log2 fold change: 0.123

RRIRHRPPRLPRPRPRPPPMPRP
shrunken log2 fold change: 0.557

RRIRSRPPRLPRPRPRPHDSPRP
shrunken log2 fold change: 0.0375

RRIRFRPPRLPRPRPRPGSHPRP
shrunken log2 fold change: -0.225

RRIRDRPPRLPRPRPRPQDHPRP
shrunken log2 fold change: 0.0862

RRIRPRPPRLPRPRPRPIMEPRP
shrunken log2 fold change: -0.159

RRIRERPPRLPRPRPRPRGYPRP
shrunken log2 fold change: -0.1

RRIRVRPPRLPRPRPRPTVEPRP
shrunken log2 fold change: 0.195

RRIRPRPPRLPRPRPRPDVRPRP
shrunken log2 fold change: 1.79

RRIRKRPPRLPRPRPRPQAYPRP
shrunken log2 fold change: -0.216

RRIRLRPPRLPRPRPRPAHYPRP
shrunken log2 fold change: -0.147

RRIRTRPPRLPRPRPRPYYFPRP
shrunken log2 fold change: -0.783

RRIRIRPPRLPRPRPRPQVVPRP
shrunken log2 fold change: -0.0262

RRIRYRPPRLPRPRPRPRYAPRP
shrunken log2 fold change: -0.0163

RRIRFRPPRLPRPRPRPAFTPRP
shrunken log2 fold change: -0.224

RRIRTRPPRLPRPRPRPGCFPRP
shrunken log2 fold change: 0.0805

RRIRYRPPRLPRPRPRPLKLPRP
shrunken log2 fold change: -0.772

RRIRVRPPRLPRPRPRPMAYPRP
shrunken log2 fold change: -0.012

RRIRMRPPRLPRPRPRPIGTPRP
shrunken log2 fold change: 0.403

RRIRMRPPRLPRPRPRPKTKPRP
shrunken log2 fold change: 0.557

RRIRKRPPRLPRPRPRPHCSPRP
shrunken log2 fold change: 0.063

RRIRIRPPRLPRPRPRPSEKPRP
shrunken log2 fold change: -0.195

RRIRQRPPRLPRPRPRPREAPRP
shrunken log2 fold change: 0.384

RRIRDRPPRLPRPRPRPPCTPRP
shrunken log2 fold change: 0.00986

RRIRTRPPRLPRPRPRPMQTPRP
shrunken log2 fold change: 0.0276

RRIRKRPPRLPRPRPRPDDVPRP
shrunken log2 fold change: 2.03

RRIRFRPPRLPRPRPRPARVPRP
shrunken log2 fold change: 0.319

RRIRKRPPRLPRPRPRPNEWPRP
shrunken log2 fold change: 0.0498

RRIRKRPPRLPRPRPRPGMRPRP
shrunken log2 fold change: 0.926

RRIRHRPPRLPRPRPRPRKVPRP
shrunken log2 fold change: -0.0134

RRIRPRPPRLPRPRPRPKNEPRP
shrunken log2 fold change: -0.119

RRIRERPPRLPRPRPRPRIRPRP
shrunken log2 fold change: 0.0747

RRIRVRPPRLPRPRPRPASVPRP
shrunken log2 fold change: 0.0346

RRIRCRPPRLPRPRPRPNKTPRP
shrunken log2 fold change: -0.0276

RRIRGRPPRLPRPRPRPYMDPRP
shrunken log2 fold change: -0.0735

RRIRNRPPRLPRPRPRPGYRPRP
shrunken log2 fold change: -0.514

RRIRCRPPRLPRPRPRPDGVPRP
shrunken log2 fold change: 0.125

RRIRLRPPRLPRPRPRPEHPPRP
shrunken log2 fold change: -0.00635

RRIRLRPPRLPRPRPRPMIWPRP
shrunken log2 fold change: -0.0275

RRIRYRPPRLPRPRPRPGASPRP
shrunken log2 fold change: -0.313

RRIRCRPPRLPRPRPRPVLIPRP
shrunken log2 fold change: -0.414

RRIRWRPPRLPRPRPRPKQYPRP
shrunken log2 fold change: -0.266

RRIRMRPPRLPRPRPRPYHVPRP
shrunken log2 fold change: -0.065

RRIRMRPPRLPRPRPRPAVYPRP
shrunken log2 fold change: 0.265

RRIRTRPPRLPRPRPRPHDAPRP
shrunken log2 fold change: -0.0483

RRIRPRPPRLPRPRPRPRFMPRP
shrunken log2 fold change: -0.0826

RRIRGRPPRLPRPRPRPLLRPRP
shrunken log2 fold change: 0.485

RRIRGRPPRLPRPRPRPAQTPRP
shrunken log2 fold change: 0.221

RRIRYRPPRLPRPRPRPFWWPRP
shrunken log2 fold change: -0.102

RRIRLRPPRLPRPRPRPTYMPRP
shrunken log2 fold change: -0.469

RRIRGRPPRLPRPRPRPLSNPRP
shrunken log2 fold change: 0.416

RRIRIRPPRLPRPRPRPQYMPRP
shrunken log2 fold change: -1.02

RRIRRRPPRLPRPRPRPMSSPRP
shrunken log2 fold change: -0.00615

RRIRCRPPRLPRPRPRPYDFPRP
shrunken log2 fold change: -0.894

RRIRKRPPRLPRPRPRPPLAPRP
shrunken log2 fold change: 1.06

RRIRGRPPRLPRPRPRPISTPRP
shrunken log2 fold change: 0.289

RRIRTRPPRLPRPRPRPNIFPRP
shrunken log2 fold change: -0.174

RRIRIRPPRLPRPRPRPNYMPRP
shrunken log2 fold change: -0.177

RRIRRRPPRLPRPRPRPWTYPRP
shrunken log2 fold change: -0.0139

RRIRKRPPRLPRPRPRPTTPPRP
shrunken log2 fold change: 0.427

RRIRFRPPRLPRPRPRPYSAPRP
shrunken log2 fold change: -1.11

RRIRNRPPRLPRPRPRPPEQPRP
shrunken log2 fold change: 0.112

RRIRNRPPRLPRPRPRPNHYPRP
shrunken log2 fold change: -0.885

RRIRYRPPRLPRPRPRPDIMPRP
shrunken log2 fold change: -1.15

RRIRMRPPRLPRPRPRPIQAPRP
shrunken log2 fold change: 0.295

RRIRFRPPRLPRPRPRPMQMPRP
shrunken log2 fold change: 0.142

RRIRCRPPRLPRPRPRPNCGPRP
shrunken log2 fold change: -0.281

RRIRPRPPRLPRPRPRPYEFPRP
shrunken log2 fold change: -0.0919

RRIRSRPPRLPRPRPRPKVWPRP
shrunken log2 fold change: 0.115

RRIRTRPPRLPRPRPRPKTCPRP
shrunken log2 fold change: 0.012

RRIRRRPPRLPRPRPRPVIEPRP
shrunken log2 fold change: 0.119

RRIRFRPPRLPRPRPRPPMTPRP
shrunken log2 fold change: -0.0559

RRIRGRPPRLPRPRPRPQSVPRP
shrunken log2 fold change: -0.199

RRIRARPPRLPRPRPRPDPNPRP
shrunken log2 fold change: 0.531

RRIRMRPPRLPRPRPRPFPRPRP
shrunken log2 fold change: -0.0223

RRIRRRPPRLPRPRPRPPQHPRP
shrunken log2 fold change: 1.2

RRIRERPPRLPRPRPRPIGLPRP
shrunken log2 fold change: -0.293

RRIRFRPPRLPRPRPRPQHWPRP
shrunken log2 fold change: 0.0645

RRIRRRPPRLPRPRPRPFRFPRP
shrunken log2 fold change: 0.506

RRIRRRPPRLPRPRPRPINSPRP
shrunken log2 fold change: -0.314

RRIRSRPPRLPRPRPRPSAPPRP
shrunken log2 fold change: 0.287

RRIRYRPPRLPRPRPRPATIPRP
shrunken log2 fold change: -1.16

RRIRVRPPRLPRPRPRPHVVPRP
shrunken log2 fold change: -0.479

RRIRMRPPRLPRPRPRPPINPRP
shrunken log2 fold change: -0.195

RRIRSRPPRLPRPRPRPLMVPRP
shrunken log2 fold change: 0.134

RRIRQRPPRLPRPRPRPAYSPRP
shrunken log2 fold change: -0.051

RRIRWRPPRLPRPRPRPEGEPRP
shrunken log2 fold change: 1.27

RRIRPRPPRLPRPRPRPHEFPRP
shrunken log2 fold change: 0.253

RRIRTRPPRLPRPRPRPAARPRP
shrunken log2 fold change: 0.374

RRIRLRPPRLPRPRPRPLNGPRP
shrunken log2 fold change: -0.217

RRIRIRPPRLPRPRPRPCICPRP
shrunken log2 fold change: -0.148

RRIRPRPPRLPRPRPRPRFNPRP
shrunken log2 fold change: -0.181

RRIRTRPPRLPRPRPRPLTDPRP
shrunken log2 fold change: -0.198

RRIRLRPPRLPRPRPRPKAWPRP
shrunken log2 fold change: -0.0115

RRIRDRPPRLPRPRPRPQYIPRP
shrunken log2 fold change: -0.246

RRIRNRPPRLPRPRPRPNMGPRP
shrunken log2 fold change: -0.00804

RRIRTRPPRLPRPRPRPTRNPRP
shrunken log2 fold change: -0.0423

RRIRTRPPRLPRPRPRPYESPRP
shrunken log2 fold change: -0.00247

RRIRMRPPRLPRPRPRPSNQPRP
shrunken log2 fold change: -0.0365

RRIRRRPPRLPRPRPRPWIMPRP
shrunken log2 fold change: 0.0607

RRIRPRPPRLPRPRPRPMNWPRP
shrunken log2 fold change: -0.0482

RRIRDRPPRLPRPRPRPGQFPRP
shrunken log2 fold change: -0.166

RRIRYRPPRLPRPRPRPHHEPRP
shrunken log2 fold change: -0.0815

RRIRFRPPRLPRPRPRPGIRPRP
shrunken log2 fold change: -0.136

RRIRGRPPRLPRPRPRPRATPRP
shrunken log2 fold change: 1.72

RRIRERPPRLPRPRPRPHDLPRP
shrunken log2 fold change: -0.343

RRIRLRPPRLPRPRPRPIFTPRP
shrunken log2 fold change: -0.206

RRIRKRPPRLPRPRPRPKNIPRP
shrunken log2 fold change: -0.253

RRIRSRPPRLPRPRPRPVNVPRP
shrunken log2 fold change: -0.156

RRIRHRPPRLPRPRPRPNDQPRP
shrunken log2 fold change: -0.169

RRIRNRPPRLPRPRPRPMNNPRP
shrunken log2 fold change: -0.749

RRIRHRPPRLPRPRPRPSAFPRP
shrunken log2 fold change: -0.435

RRIRGRPPRLPRPRPRPTHGPRP
shrunken log2 fold change: 0.487

RRIRWRPPRLPRPRPRPERDPRP
shrunken log2 fold change: 0.128

RRIRCRPPRLPRPRPRPGGLPRP
shrunken log2 fold change: 0.17

RRIRGRPPRLPRPRPRPCIDPRP
shrunken log2 fold change: 0.877

RRIRSRPPRLPRPRPRPKACPRP
shrunken log2 fold change: -0.253

RRIRERPPRLPRPRPRPYRTPRP
shrunken log2 fold change: -1.15

RRIRERPPRLPRPRPRPQNGPRP
shrunken log2 fold change: -0.0634

RRIRHRPPRLPRPRPRPDLFPRP
shrunken log2 fold change: -0.00544

RRIRKRPPRLPRPRPRPMLLPRP
shrunken log2 fold change: -0.0797

RRIRPRPPRLPRPRPRPCACPRP
shrunken log2 fold change: -0.129

RRIRERPPRLPRPRPRPGDKPRP
shrunken log2 fold change: -0.315

RRIRHRPPRLPRPRPRPAIQPRP
shrunken log2 fold change: 0.0477

RRIRMRPPRLPRPRPRPWTIPRP
shrunken log2 fold change: -0.0577
